Data set [1] deals with the molecule itself. Kind of data set: Western blot / Coomassie gel after Ni-NTA purification (self-association). On the technique in general: Immunoblotting shows a protein as a band on a membrane.
Data set [2] deals with MBP:HA-HC-Pro fusion protein (ZYMV HC-Pro fused to the C-terminus of maltose binding protein, HA-tag between … (zucchini yellow mosaic virus (ZYMV), UniProt P0AEX9 27-396 = MBP)). Kind of data set: cell-based or functional assay.

B1: Trx-cupin-protein-His-protein (A. thaliana cupin protein expressed from pET32a(+)) (other)
chain: MGCIGVVNVTSINPYLTRRSNKPYNSRRPSSMAAAIRAESTEKLGITIEKNPPESKLTQLGVRSWPKWGCPPSKFPWTYSAKETCYLLQGKVKVYPNGSDEGVEIEAGDFVVFPKGMSCTWDVSVAVDKHYQFE
notes: Expressed in BL21 (DE3) codon plus, purified by the His-tag; 34 kDa monomer; also called Tm-cupin-protein-His-protein; Trx-QP-His-protein; not shown: N-terminal pET32a(+) tags: thioredoxin (Trx-tag), 6 X His-tag, S-Tag, enterokinase site; C-terminal 6 X His-tag from pET32a(+)
On to B1, for which the binding result in data set [1] was “binds”. Also, the “gelshift (EMSA): binding of 21 bp siRNA-double strands by MBP-HA-HC-Pro, signal intensities (Quantity One)” value in data set [2] stood at 3 fold.

(Values after EP2388325A1 (RLP AgroScience GmbH, dated 2011).)
